Assay results taken from patent publication US20260242735A1 (UNIVERSIT T BASEL, published 2026).

Tests used:
Assay in all cases: BLI (Octet R8), avidity format: biotinylated CD33 on streptavidin sensor, Refmab #1 as analyte at 300 or 500 nM;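 further: sensorgrams recorded with a 300 s analyte association phase followed by a 900 s dissociation phase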
[1] = target: CD33 variant F21V (recombinant, biotinylated) (human, UniProt P20138 22-259, biotinylated with EZ-Link Sulfo-NHS-LC-Biotin (sites not given))
[2] = target: CD33 variant Y50D (recombinant, biotinylated) (human, UniProt P20138 18-259, biotinylated with EZ-Link Sulfo-NHS-LC-Biotin (sites not given))
[3] = target: CD33 variant F21N (recombinant, biotinylated) (human, UniProt P20138 22-259, biotinylated with EZ-Link Sulfo-NHS-LC-Biotin (sites not given))
[4] = target: CD33 variant Y50K (recombinant, biotinylated) (human, UniProt P20138 18-259, biotinylated with EZ-Link Sulfo-NHS-LC-Biotin (sites not given))
[5] = target: CD33 variant N20E (recombinant, biotinylated) (human, UniProt P20138 21-259, biotinylated with EZ-Link Sulfo-NHS-LC-Biotin (sites not given))
[6] = target: CD33 variant W22K (recombinant, biotinylated) (human, UniProt P20138 18-259, biotinylated with EZ-Link Sulfo-NHS-LC-Biotin (sites not given))
[7] = target: T1, CD33 wild type (recombinant, biotinylated) (human, UniProt P20138 18-259, biotinylated with EZ-Link Sulfo-NHS-LC-Biotin (sites not given))
T1 construct: also called WT; CD33 wt

[8] = target: CD33 variant F21H (recombinant, biotinylated) (human, UniProt P20138 22-259, biotinylated with EZ-Link Sulfo-NHS-LC-Biotin (sites not given))
[9] = target: CD33 variant Y50R (recombinant, biotinylated) (human, UniProt P20138 18-259, biotinylated with EZ-Link Sulfo-NHS-LC-Biotin (sites not given))
[10] = target: CD33 variant W22R (recombinant, biotinylated) (human, UniProt P20138 18-259, biotinylated with EZ-Link Sulfo-NHS-LC-Biotin (sites not given))
[11] = target: CD33 double variant Y50H_H49H (recombinant, biotinylated) (human, UniProt P20138 18-259, biotinylated with EZ-Link Sulfo-NHS-LC-Biotin (sites not given))
[12] = target: CD33 variant N20V (recombinant, biotinylated) (human, UniProt P20138 21-259, biotinylated with EZ-Link Sulfo-NHS-LC-Biotin (sites not given))
[13] = target: CD33 variant F21M (recombinant, biotinylated) (human, UniProt P20138 22-259, biotinylated with EZ-Link Sulfo-NHS-LC-Biotin (sites not given))
[14] = target: CD33 variant F21I (recombinant, biotinylated) (human, UniProt P20138 22-259, biotinylated with EZ-Link Sulfo-NHS-LC-Biotin (sites not given))
[15] = target: CD33 variant F21Q (recombinant, biotinylated) (human, UniProt P20138 22-259, biotinylated with EZ-Link Sulfo-NHS-LC-Biotin (sites not given))
[16] = target: CD33 variant N20G (recombinant, biotinylated) (human, UniProt P20138 21-259, biotinylated with EZ-Link Sulfo-NHS-LC-Biotin (sites not given))
[17] = target: CD33 variant W22D (recombinant, biotinylated) (human, UniProt P20138 18-259, biotinylated with EZ-Link Sulfo-NHS-LC-Biotin (sites not given))
[18] = target: CD33 variant W22T (recombinant, biotinylated) (human, UniProt P20138 18-259, biotinylated with EZ-Link Sulfo-NHS-LC-Biotin (sites not given))
[19] = target: CD33 variant N20H (recombinant, biotinylated) (human, UniProt P20138 21-259, biotinylated with EZ-Link Sulfo-NHS-LC-Biotin (sites not given))
[20] = target: CD33 variant N20K (recombinant, biotinylated) (human, UniProt P20138 21-259, biotinylated with EZ-Link Sulfo-NHS-LC-Biotin (sites not given))
[21] = target: CD33 variant F44P (recombinant, biotinylated) (human, UniProt P20138 18-259, biotinylated with EZ-Link Sulfo-NHS-LC-Biotin (sites not given))
[22] = target: CD33 variant F21S (recombinant, biotinylated) (human, UniProt P20138 22-259, biotinylated with EZ-Link Sulfo-NHS-LC-Biotin (sites not given))
[23] = target: CD33 variant W22E (recombinant, biotinylated) (human, UniProt P20138 18-259, biotinylated with EZ-Link Sulfo-NHS-LC-Biotin (sites not given))
[24] = target: CD33 variant F21L (recombinant, biotinylated) (human, UniProt P20138 22-259, biotinylated with EZ-Link Sulfo-NHS-LC-Biotin (sites not given))
Chain of CD33 variant F21L (recombinant, biotinylated) (P20138 other isoform, or with tags, fused parts or gaps F21L F21L): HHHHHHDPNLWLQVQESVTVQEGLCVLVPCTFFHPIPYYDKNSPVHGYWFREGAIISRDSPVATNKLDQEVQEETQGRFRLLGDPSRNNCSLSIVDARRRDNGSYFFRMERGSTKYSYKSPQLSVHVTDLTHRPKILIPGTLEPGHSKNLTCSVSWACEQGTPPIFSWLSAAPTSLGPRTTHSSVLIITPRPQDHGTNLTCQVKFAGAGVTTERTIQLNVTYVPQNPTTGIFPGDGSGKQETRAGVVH

Chain of CD33 variant F44P (recombinant, biotinylated) (P20138 other isoform, or with tags, fused parts or gaps F44P F44P): as the sequence (P20138 other isoform, or with tags, fused parts or gaps F21L F21L) above, with L10F, F33P counted along it
Chain of CD33 variant N20G (recombinant, biotinylated) (P20138 other isoform, or with tags, fused parts or gaps N20G N20G): as the sequence (P20138 other isoform, or with tags, fused parts or gaps F21L F21L) above, with N9G, L10F counted along it
Chain of CD33 variant Y50D (recombinant, biotinylated) (P20138 other isoform, or with tags, fused parts or gaps Y50D Y50D): as the sequence (P20138 other isoform, or with tags, fused parts or gaps F21L F21L) above, with L10F, Y39D counted along it
T1 sequence (P20138 other isoform, or with tags, fused parts or gaps): as the sequence (P20138 other isoform, or with tags, fused parts or gaps F21L F21L) above, with L10F counted along it
Chain of CD33 variant N20H (recombinant, biotinylated) (P20138 other isoform, or with tags, fused parts or gaps N20H N20H): as the sequence (P20138 other isoform, or with tags, fused parts or gaps F21L F21L) above, with N9H, L10F counted along it
Chain of CD33 variant N20E (recombinant, biotinylated) (P20138 other isoform, or with tags, fused parts or gaps N20E N20E): as the sequence (P20138 other isoform, or with tags, fused parts or gaps F21L F21L) above, with N9E, L10F counted along it
Chain of CD33 double variant Y50H_H49H (recombinant, biotinylated) (P20138 other isoform, or with tags, fused parts or gaps Y50H H49H Y50H H49H): as the sequence (P20138 other isoform, or with tags, fused parts or gaps F21L F21L) above, with L10F, Y38H, Y39H counted along it
Chain of CD33 variant Y50K (recombinant, biotinylated) (P20138 other isoform, or with tags, fused parts or gaps Y50K Y50K): as the sequence (P20138 other isoform, or with tags, fused parts or gaps F21L F21L) above, with L10F, Y39K counted along it
Chain of CD33 variant W22K (recombinant, biotinylated) (P20138 other isoform, or with tags, fused parts or gaps W22K W22K): as the sequence (P20138 other isoform, or with tags, fused parts or gaps F21L F21L) above, with L10F, W11K counted along it
Chain of CD33 variant F21Q (recombinant, biotinylated) (P20138 other isoform, or with tags, fused parts or gaps F21Q F21Q): as the sequence (P20138 other isoform, or with tags, fused parts or gaps F21L F21L) above, with L10Q counted along it
Chain of CD33 variant W22T (recombinant, biotinylated) (P20138 other isoform, or with tags, fused parts or gaps W22T W22T): as the sequence (P20138 other isoform, or with tags, fused parts or gaps F21L F21L) above, with L10F, W11T counted along it
Chain of CD33 variant F21N (recombinant, biotinylated) (P20138 other isoform, or with tags, fused parts or gaps F21N F21N): as the sequence (P20138 other isoform, or with tags, fused parts or gaps F21L F21L) above, with L10N counted along it
Chain of CD33 variant N20K (recombinant, biotinylated) (P20138 other isoform, or with tags, fused parts or gaps N20K N20K): as the sequence (P20138 other isoform, or with tags, fused parts or gaps F21L F21L) above, with N9K, L10F counted along it
Chain of CD33 variant Y50R (recombinant, biotinylated) (P20138 other isoform, or with tags, fused parts or gaps Y50R Y50R): as the sequence (P20138 other isoform, or with tags, fused parts or gaps F21L F21L) above, with L10F, Y39R counted along it
Chain of CD33 variant F21I (recombinant, biotinylated) (P20138 other isoform, or with tags, fused parts or gaps F21I F21I): as the sequence (P20138 other isoform, or with tags, fused parts or gaps F21L F21L) above, with L10I counted along it
Chain of CD33 variant F21V (recombinant, biotinylated) (P20138 other isoform, or with tags, fused parts or gaps F21V F21V): as the sequence (P20138 other isoform, or with tags, fused parts or gaps F21L F21L) above, with L10V counted along it
Chain of CD33 variant W22D (recombinant, biotinylated) (P20138 other isoform, or with tags, fused parts or gaps W22D W22D): as the sequence (P20138 other isoform, or with tags, fused parts or gaps F21L F21L) above, with L10F, W11D counted along it
Chain of CD33 variant N20V (recombinant, biotinylated) (P20138 other isoform, or with tags, fused parts or gaps N20V N20V): as the sequence (P20138 other isoform, or with tags, fused parts or gaps F21L F21L) above, with N9V, L10F counted along it

B1: Refmab #1 (antibody, human IgG1, V domains shown)
VH: EVQLVQSGAEVKKPGSSVKVSCKASGYTITDSNIHWVRQAPGQSLEWIGYIYPYNGGTDYNQKFKNRATLTVDNPTNTAYMELSSLRSEDTAFYYCVNGNPWLAYWGQGTLVTVSS
VL: DIQLTQSPSTLSASVGDRVTITCRASESLDNYGIRFLTWFQQKPGKAPKLLMYAASNQGSGVPSRFSGSGSGTEFTLTISSLQPDDFATYYCQQTKEVPWSFGQGTKVEVK
notes: also called hP67.6; Absolute Antibody Cat. No. Ab00283-10.0
Q: For B1, which “% WT binding” value [1] is on record?
A: The value was 5.41 % WT binding.

Q: And the “% WT binding” value [2]?
A: Its value is 131 % WT binding.

Q: And the “% WT binding” value [3]?
A: Its value is 0 % WT binding.

Q: What about the “% WT binding” value [4] of the same binder?
A: The value was 86.6 % WT binding.

Q: And the “% WT binding” value [5]?
A: Its value is 5.59 % WT binding.

Q: And the “% WT binding” value [6]?
A: The value was 22.4 % WT binding.

Q: What about the “% WT binding” value [7] of the same binder?
A: The value was 100 % WT binding.

Q: What about the “% WT binding” value [8] of the same binder?
A: The value was 10.4 % WT binding.

Q: What about the “% WT binding” value [9] of the same binder?
A: Its value is 108 % WT binding.

Q: And the “% WT binding” value [10]?
A: Its value is 51.9 % WT binding.

Q: And the “% WT binding” value [11]?
A: The value was 95.8 % WT binding.

Q: What about the “% WT binding” value [12] of the same binder?
A: Its value is 29.3 % WT binding.

Q: What about the “% WT binding” value [13] of the same binder?
A: The value was 6.62 % WT binding.

Q: And the “% WT binding” value [14]?
A: Its value is 0 % WT binding.

Q: And the “% WT binding” value [15]?
A: Its value is 0 % WT binding.

Q: What about the “% WT binding” value [16] of the same binder?
A: The value was 9.44 % WT binding.

Q: And the “% WT binding” value [17]?
A: Its value is 12.7 % WT binding.

Q: What about the “% WT binding” value [18] of the same binder?
A: The value was 37.5 % WT binding.

Q: What about the “% WT binding” value [19] of the same binder?
A: The value was 32.9 % WT binding.

Q: And the “% WT binding” value [20]?
A: Its value is 6.79 % WT binding.

Q: What about the “% WT binding” value [21] of the same binder?
A: The value was 2 % WT binding.

Q: And the “% WT binding” value [22]?
A: Its value is 9.03 % WT binding.

Q: And the “% WT binding” value [23]?
A: Its value is 67.5 % WT binding.

Q: What about the “% WT binding” value [24] of the same binder?
A: Its value is 12.2 % WT binding.
